Test results: the PETadex activity labels (doi:10.1007/s00253-014-5672-0)

How the values were obtained:
[1] = Melting temperature [CD spectroscopy]; details: pH 8.5; part of the chain shown
pNPB = test: Proxy for plastic degradation [Residual activity]; details: pH 8, part of the chain shown

Protein	Melting temperature [1] [°C]	Proxy for plastic degradation (pNPB; 25 °C) [%]	Proxy for plastic degradation (pNPB; 30.7 °C) [%]	Proxy for plastic degradation (pNPB; 40.2 °C) [%]	Proxy for plastic degradation (pNPB; 50.6 °C) [%]	Proxy for plastic degradation (pNPB; 54.9 °C) [%]	Proxy for plastic degradation (pNPB; 59.5 °C) [%]	Proxy for plastic degradation (pNPB; 65.6 °C) [%]	Proxy for plastic degradation (pNPB; 68.6 °C) [%]	Proxy for plastic degradation (pNPB; 74.8 °C) [%]	Proxy for plastic degradation (pNPB; 78.8 °C) [%]
unnamed (protein) ANPYERGPNPTDALLEARSGPFSVSEENVSRLSASGFGGGTIYYPRENNTYGAVAISPGYTGTEASIAWLGERIASHGFVVITIDTITTLDQPDSRAEQLNAALNHMINRASSTVRSRIDSSRLAVMGHSMGGGGSLRLASQRPDLKAAIPLTPWHLNKNWSSVTVPTLIIGADLDTIAPVATHAKPFYNSLPSSISKAYLELDGATHFAPNIPNKIIGKYSVAWLKRFVDNDTRYTQFLCPGPRDGLFGEVEEYRSTCPF	70	–	–	–	–	–	–	–	–	–	–
unnamed (protein) ANPYERGPNPTDALLEARSGPFSVSEENVSRLSASGFGGGTIYYPRENNTYGAVAISPGYTGTEASIAWLGERIASHGFVVITIDTITTLDQPDSRAEQLNAALNHMINRASSTVRSRIDSSRLAVMGHSMGGGGSLRLASQRPDLKAAIPLTPWHLNKNWSSVTVPTLIIGADLDTIAPVATHAKPFYNSLPSSISKAYLELDGATHFAPNIPNKIIGKYSVAWLKRFVDNDTRYTQFLCPGPRDGLFGEVEEYRSTCPFY	–	100	110	95	115	85	65	2	1	0	0
